Consider one substance from doi:10.1101/2021.10.07.463402.

The assay concerns the target SARS-CoV-2 spike glycoprotein (S), wild type (SARS-CoV-2 strain Wuhan-Hu-1). The assay can be described thus: native gel or EMSA. (In general: A gel shift assay detects complexes by their altered migration in electrophoresis.)

With “SARS-CoV-2 spike glycoprotein (S), wild type (natural protein)”, the stoichiometry N (commonly a count of units in the complex or per binding partner) was 3.
